B1: 804 (protein, listed as Microbacterium trichothecenolyticum)
chain: MTETATSTHTDSVQHLVPLLDRLTLEQKAALVQGADFWTTVPLPEIGLRAMTLSDGPAGVRGPRWDEREPSLNLPSGSALAASWDVDLAYRYGAAAASEARRKGVDVVLGPTINLHRSPLGGRHFECFSEDPELTAELAAAYVRGLQDNDVAACPKHYVANDSETDRFTVDVRVDERALRENYLAPFERAVDAGAWTIMSAYNAVDGVTMTENDLLETPLNSEWGFDGVVISDWTAVRSLDSVPAAQDLAMPGPAPAWADLVAAIRDGRLNEADLDRKVLRVLLLAQRVGALGEREPREPAPLDGPAFAREAAIEGTVLLRNEGVLPLDASSLGRVAVIGQNAREARTQGGGSATVIPESVVSPLDAIRAAVPGADVGFEIGAVVQEGVAEIPLAHLTNPATGEAGIRVAFFDADGTELFAENRRSTALVWFGGDAPIAASATVVFETLYTPAETGDIELGFAGANPGKLYVDGQLVLDDSPVIEGTDLGAAFLNPPSITATVAVEAGRETAVRVEFSRESHGALSGALSATLGIAPERTDADELIARAVAEAAASDLAIVVVGTNSKVESEGYDRTSLDLPGRQDDLVRAVAATGTPTVVVVNAGSPVVLPWAEDVAAVVQGYFGGQEFGHAIADVLTGAAEPGGRLPTTWPAALADVPVTEVVPTDGRLEYREGLHIGYRAWLKADAVPAFAFGHGLGYTTWSWGAAQRTGDTVEVTLANTGHRRGKQVVQVYAERPESAVERPERWLVGFATVHAAPGETVTATIPVPARRLAHWAGEWTVESGAYTLRAGASVADLPLSLEWRIAS
B2: 881 (protein, listed as Treponema azotonutricium)
chain: MTSKEIIPQMTLEEKAALCSGRDFWSLKGIERFGLEAIMVTDGPHGLRKQGGDGDHLGLNQSVPATCFPAACATACSFDRSLLEEIGAAMGEECRKEKVAVLLGPAANIKRSPLCGRNFEYISEDPFLTGEIAAALIKGVQKLGVGTSLKHYAVNNQEKRRMTINAVVDERAFREIYLAGFEKAVREAKPWTLMCSYNKINGTYASENKKLLTDILRDEWAYQGLVMTDWGASNNRLEGIKAGLDLQMPGPDADNDKRIIEAVKSGALSIEDLDKVVARVVDLIIKAGEGDSIGFACDMEAHHLLARRAAAESAVLLKNDENILPLVPGKTLAVIGAFAISPRYQGAGSSKINPSHLDKAFDAIMRTGIKAEYAPGYSLEAGSGVNEKLIAEAAKLAGEKDSAVVFAGLPDEYESEGFDRASMDMSESHNKLIEAVAKANPNTVVVLQLGSPVALPWADKVKGILLLYLSGQAGGGAAADLLTGNACPGGKLAETWPLALEDNPSYGNFPGSTKTVEYRESIFAGYRWYDALEKEVRYPFGFGLSYTSFEYSDLKLGTSAEAKDNFKKGDALKVSFTVKNTGSREGSETAQLYIAPDASVLFRAKKELKGFEKLHLKPGESKTVTLILDERSFAYYNVQAKDWSLEGGLYRILIGASSRDIRLEGKLELTGDKRETAFAFLKGGRPVFDDASFKAIYGAELPPKERLPGEPFTVNTSVEEIKDTPIGKALFGMAVQGLEQAFGKEKSDLKVMMESMLMDMPLRGLGMMSGGRLTPPVIEALVEALNGKPNPIASGLLGMK
B3: 888 (protein)
chain: MTESVAHLRPLLDALTLEQKAALVQGADFWTTVPLPEIGLRAMTLSDGPSGVRGPRWDEREPSLNLPSGSALAASWDVDLAYRYGAAAASEARRKGVDVVLGPTINLHRSPLGGRHFECFSEDPELTAELAAAYVRGMQDNGVAATPKHYVANDSETDRFTVDVDVDDRALRELYLAPFERAVEAGAWSVMSAYNAVDGVTMTENDLLETPLNSEWGFDGVVVSDWTAVRSLDAVAAAQDLAMPGPAPAWADLLAAVRDGRVQEADLDRKVLRLLLLAERVGALEGSTALEPAPVDAEAFAREAGIEGTVLLRNTGALPLDVAAIRSIAVIGHNARDARTQGGGSATVLPERTVSPLDGLREALPEADLRYEIGAVVQEGVAEIPVAQLRNPETGEPGLRVRFLDEDGAELFSEDRRSTALVWFGGDAPVAASSRVVFETVFTPAETGEIQLGFAGANPGRLYVDDRLVLDDTPVIEGTDLGAAFLNPPSLTAGVSVEQDTPIRVRVEFTLARGGALAGALSATVGIAPEATDPEALIARAVEAAAAADVAVVVVGTNSKVESEGYDRIDLDLPGRQDDLVRAVAATGTPVVVVVNAGSPVVLPWADEVSAIVQGYFGGQEFGHALADVLTGAAEPGGRLPTTWPATLADVPVQDVTPQDGVLTYGEGIHVGYRAWLKDAATPAFPFGHGLGYTTWSWGAAHRHGDAVDVTVRNTGDRAGKQVVQVYAERGDSSVDRPVRWLVGFATVHAEPGETVTATVPVPGRRLAHWADGWVVEPGAYTLRAGASVDDLPLALEWTVAE
modifications: uncultured Microbacterium sp.
B4: 1017 (protein, listed as Kribbella flavida)
chain: MSFPAAPARLRFEHRTDPGPVLGIGTATPRLSWQVPTAPDDYRQAGYEVEIARGDAAPEQYTVDSADQVLVPWPGTPLAARESATVRVRVRGDGDWSQWSDPATVEAGLLSADDWTARFVSPRENAGHEAPAPLIGGVIDLPADIAQARLYATAHGIYEPTLNGTRVGDEQLAPGWTAYEQRLRYQTYDVTDLVAPGENRLELLVGNGWYRGRLGFHGKHSLYGDRLAVLAQLEVTTATGEVKVLASDGTWTTRETNVLADDLYDGQHVDLRRTLGEPGPVDVLDADLSLLVAPDGPPVRVTDVLPAKAVTTSPAGKTLVDFGQNVVGRLRLRVRGGAAGDEIVLRHAEVLEDGELGVRPLRTAKATDSFVLAGPDEVTLEPTLTFHGFRYAEITGVPDLRAEDVEAVVVGSDLRRTGWFESSHPLLDRFHENVVWGMRGNFLDVPTDCPQRDERLGWTGDIQVFSPTASFLFDTAGFLTNWLADLIAEQHKDGSVPFVVPDVLRQPGPATAAWGDAATIVPWVLYERTGDAGLLARQLPSMRAWVDRMAGLAGDDLLWVGGFQFGDWLDPTAPPDDPFRAKADPDVLATAHLARSAEVVALAAEVVGAGELAREYAELAARVRQAFAAEYTTGSGRVLSDAATNYALALQWALLPTEAQRKRAGERLADLVRTAGFRISTGFVGTPLMADALADSGHPDLAYRLLLETGCPSWLYAVTMDATTVWERWDSMLPDGSINPGQMTSFNHYALGAVADWMHRRVAGLAPGDPGYRRIVVDPLFTAHLTKASARHLTPYGEAAVAWSRSGGRVRLEVTVPVGARARVAVPGESAPVEVGHGTHEWTADDVYGETPPLPADATIRQLIDHEPSWTTLAAAATRTGIVADDAELAGRLERYLDHPATELVDAVSPRGFSPSAEALQAELDSVLGR

Columns and labels:
Format in all cases: biochemical, Quillaja saponaria
[1] = Experiment 5-1: screening of additional glucosidases for deglycosylation with purified QS-18 (0.04 mg/ml) at pH 7.5 and 30 deg C; conditions: pH 7.5, 30 degrees C, 18 hours, LCMS/MS
Procedure: The 94 additional genes, together with positive control (DNA encoding SEQ ID No. 262) and negative control, were transformed, expressed, lysed and reacted in the same manner as described above for Experiment 4-1, except the reaction was incubated at 30 degrees C. for 18 hours.
Samples were analysed by LCMS/MS according to the procedure in Experiment 4-1.

[2] = Experiment 5-2: screening of additional glucosidases for deglycosylation with QS-18 in crude bark extract (80%) at pH 6 and 35 deg C; conditions: CBE 80%, pH 6, 35 deg C, 18 hours; UV HPLC
Procedure: A plate was lysed at pH 6 as described in Experiment 4-2. 40 uL of clarified lysate was transferred to a reaction plate
The pH of CBE was adjusted to pH 6 by dropwise addition of 2M NaOH with stirring. 160 uL of pH 6 CBE was added to each well of the reaction plate. The reaction plate was sealed and incubated at 35 deg C. with shaking for 18 hours.
The reaction plate was quenched by adding 200 uL of MeCN (2% acetic acid (AcOH), 1 mg/mL hexanophenone) to each well of the plates. The quenched reaction plate was re-sealed and incubated at 20 deg C. with shaking for 10 min. The reaction plate was then centrifuged (10 min, 4 degC).
200 uL was transferred from each well of the quenched plate to the corresponding wells of a fresh 96 well plate and sealed. The plate was analysed by UV HPLC with the method of Experiment 4-4.

[3] = Experiment 5-3: screening of additional glucosidases for deglycosylation with QS-18 in treated bark extract (80%) at pH 6 and 35 deg C; conditions: TBE 80% (QS-21 approx. 4 g/L), pH 6, 35 deg C; UV HPLC
Procedure: Experiment 5-1 was repeated, replacing CBE with Treated Bark Extract (TBE) at pH 6. TBE was prepared from CBE by PVPP treatment and concentration, to provide TBE with a QS-21 concentration of approximately 4 g/L. TBE was adjusted to pH 6 by dropwise addition of 2M NaOH with stirring.

[4] = Experiment 6-1: screening of rhamnosidases for derhamnosylation of saponins in treated bark extract (2%), QS-17 2296 to QS-18 2150 (PAR %); conditions: TBE 2%, pH 7.5, 30 degC, 18 h; TIC peak area ratio percent of rhamnosylated starting saponin to derhamnosylated product, LCMS/MS; negative controls 4.876, 5.225
[5] = Experiment 6-1: screening of rhamnosidases for derhamnosylation of saponins in treated bark extract (2%), desglucosyl-QS-17 2134 to QS-21 1988 (PAR %); conditions: TBE 2%, pH 7.5, 30 degC, 18 h; TIC peak area ratio percent, LCMS/MS; negative controls 2.719, 2.158
[6] = Experiment 6-1: screening of rhamnosidases for derhamnosylation of saponins in treated bark extract (2%), QS-17 2310 to QS-18 2164 (PAR %); conditions: TBE 2%, pH 7.5, 30 degC, 18 h; TIC peak area ratio percent, LCMS/MS; negative controls 3.061, 2.429
[7] = Experiment 6-2: screening of rhamnosidases for derhamnosylation of saponins in treated bark extract (25%), relative % of Left, Middle and Right Peak by UV HPLC; conditions: TBE 25%, pH 7.4, 19.5 h
[8] = Experiment 6-3: screening of rhamnosidases for derhamnosylation of saponins in crude bark extract (80%), relative % of Left, Middle and Right Peak by UV HPLC; conditions: CBE 80%, pH 7.4, 30 degC, 19.5 h
Method in brief: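 Clarified lysates of expressed rhamnosidase variants were incubated with crude bark extract (pH 7.4, final 80%) at 30 degC with shaking for 19.5 h, then quenched with MeCN+2% AcOH. UV HPLC gave relative % of Left (QS-17), Middle (QS-18/desglucosyl-QS-17) and Right (QS-21) peaks.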

[9] = Experiment 6-1: specificity of rhamnosidases towards other rhamnose residues (C3 saccharide rhamnose, C28 saccharide rhamnose); conditions: TBE 2%, pH 7.5, 30 degC, 18 h; LCMS/MS; negative controls 0.18, 0.17
[10] = mainly QS-21 family, negative control 26%

Row | Molecule | Experiment 5-1 % conv [1] [%] | Experiment 5-2 % conv [2] [%] | Experiment 5-3 % conv [3] [%] | QS-17 (PAR %) [4] [%] | Peak75 (PAR %) [5] [%] | Peak57 (PAR %) [6] [%] | Left Peak ([7]; mainly QS-17 family, negative control 24%) [%] | Middle Peak ([7]; mainly QS-18 and desglucosyl-QS-17 family, negative control 50%) [%] | Right Peak [7, 10] [%] | Left Peak ([8]; mainly QS-17 family, negative control 27%) [%] | Middle Peak ([8]; mainly QS-18 and desglucosyl-QS-17 family, negative control 48%) [%] | Right Peak [8, 10] [%] | ratio PP/QS-21 [9]
1 | B1 | 83.2 | <0.5 | <0.5 | – | – | – | – | – | – | – | – | – | –
2 | B2 | 77.5 | <0.5 | <0.5 | – | – | – | – | – | – | – | – | – | –
3 | B3 | 78.0 | <0.5 | <0.5 | – | – | – | – | – | – | – | – | – | –
4 | B4 | – | – | – | 0.017 | 0.000 | 0.004 | 6 | 63 | 31 | 17 | 56 | 27 | 0.19
